What was measured:
[1] = Subunit association by FPLC on Sephacryl S-100HR; type: physicochemical; conditions: for Structure (identified by FPLC): Sephacryl S-100HR, 50 mM potassium phosphate, 500 mM NaCl; for Sephacryl (mL), elution peak position: tetramer 44 to 47 mL, dimer 51 to 54 mL, monomer 63 to 66 mL
Method: In order to analyze the subunit association conditions of LATM2, the molecular weight of each LATM2s was measured by FPLC. Sephacryl S-100HR (manufactured by GE Healthcare) was used as a column, a Gel Filtration Calibration Kit LMW (manufactured by GE Healthcare) was used as molecular weight markers, and 50 mM potassium phosphate containing 500 mM NaCl was used as a buffer.
The positions of the peaks of eluted tetramer were defined to be 44 to 47 mL after injection of WT-TM2 as a control. The peak of an eluted monomer appeared at around 63 to 66 mL and the peak of an eluted dimer appeared at around 51 to 54 mL, from result of loading the molecular weight markers.

[2] = Purification of LATM2 with 2-iminobiotin-agarose; type: binding; conditions: for Recovery rate (%): Iminobiotin-agarose, binding at pH 12, elution with 50 mM NH4OAC (pH 4)
Method: LATM2 was purified through a column charged with 2-iminobiotin-agarose (manufactured by Sigma-Aldrich Corp.) in accordance with the method by Hofmann, et al., (1980). IPTG was added to 25 mL of a culture solution of E. coli transformed with each LATM2 in a final concentration of 1 mM to induce expression. The E. coli cells were collected by centrifugation, suspended in 1.5 mL of 50 mM CAPS (pH 12) containing 50 mM NaCl, and then sonicated. To the supernatant of the disrupted cells, 500 μL of 2-iminobiotin-agarose was added, which was then packed in a column. The column was sufficiently washed with 50 mM CAPS (pH 12) containing 500 mM NaCl, and elution was then performed with 50 mM NH4OAC (pH 4).
(§1) The recovery rate in Table 2 was calculated by dividing the amount of LATM2 protein after purification by the amount of LATM2 protein before purification and was expressed by percent by multiplying the quotient by 100. The degree of purification was the ratio of the amount of LATM2 protein to the total amount of proteins in the purified fraction and was expressed by percent by multiplying the ratio by 100. The recovery rates and the degrees of purification in biotin-agarose were the results after binding at pH 7 and elution with an excess amount of biotin.

[3] = Heat resistance of LATM2 by SDS-PAGE; type: physicochemical; conditions: absence of biotin, 20 min in SDS sample buffer
Method: The heat resistance of LATM2s was investigated by SDS-PAGE. Each protein was heat treated at predetermined temperatures for 20 min in an SDS sample buffer in the presence or absence of biotin and was then subjected to SDS-PAGE, followed by CBB staining. The heating temperatures in a biotin-free experimental system were 80° C., 82° C., 84° C., 86° C., 88° C., 90° C., 92° C., and 94° C., and heating temperatures in a biotin-containing experimental system were 86° C., 88° C., 90° C., 92° C., 96° C., 98° C., and 100° C.

[4] = Purification of LATM2 with biotin-agarose; type: binding
Method: Purification with biotin-agarose (manufactured by Sigma-Aldrich Corp.) was performed by the following procedure. After induced expression of 25 mL of a culture solution of E. coli for each LATM2, the E. coli cells were suspended in 1.5 mL of a 100 mM potassium phosphate buffer (pH 7.0), and then sonicated. To the supernatant of the disrupted cells. 400 μL of biotin-agarose was added, which was followed by upside-down mixing for 1 hr. […]
In TM2 S36A-T78A-D116A, the E. coli cells were suspended in 1.5 mL of 50 mM CAPS (pH 12) containing 50 mM NaCl, and then sonicated. To the disrupted cells, 400 μL of biotin-agarose was added, which was followed by upside-down mixing for 1 hr. The column was sufficiently washed with 50 mM CAPS (pH 12) containing 500 mM NaCl, and elution was then performed with 1 mL of PBS (pH 7.4) containing 10 mM biotin.
In TM2 S36A-D116A, the E. coli cells were suspended in 1.5 mL of a 100 mM potassium phosphate buffer (pH 4.0), and then sonicated. To the pupernatant of the disrupted cells, 400 μL of biotin-agarose was added. Washing was performed with a 100 mM potassium phosphate buffer (pH 4) containing 500 mM NaCl, and elution was performed with 1 mL of PBS (pH 7) containing 10 mM biotin. Biotin binding to LATM2 that has been eluted with an excess amount of biotin was removed by dialysis with a 20 mM potassium phosphate buffer overnight.
as §1

Proteinase K = experiment: Protease resistance of LATM2 (SDS-PAGE); conditions: 5 μM Proteinase K, 30° C., 15 min, presence or absence of biotin
Method: Throughout the specification, “having protease resistance” refers to that a protein is not enzymatically decomposed or not substantially decomposed by protease treatment. The protease treatment is performed by, for example, proteinase K treatment at 30° C. for 15 min. The term “not enzymatically decomposed” refers to that bands of a tetramer, dimer, and/or monomer of the protein can be clearly detected by SDS-PAGE after enzyme treatment, as in wild-type TM2. That is, a protein not having protease resistance is decomposed into small molecules by protease treatment, and bands of the tetramer, dimer, and monomer are not detected by SDS-PAGE after the protease treatment. […] Accordingly, bands of the tetramer and/or the dimer or monomer generated by dissociation of the tetramer are detected by SDS-PAGE. […] of each of the LATM2s (TM2 S36A, TM2 […], TM2 […], TM2 […], TM2 […], TM2 S36A-[…], TM2 […], and […]) purified by biotin-agarose was subjected to a reaction in 50 mM Tris-HCl (pH 8.0) containing 5 μM Proteinase K and 5 mM CaCl2 at 30° C. for 15 min. […] Then, an SDS buffer was added to each reaction solution, followed by heat treatment at 95° C. for 10 min to terminate the reaction. The resulting sample was subjected to SDS-PAGE, followed by CBB staining.

[5] = pH-dependence of binding to biotin-agarose
Method: E. coli cells were collected from 25 mL of an E. coli culture solution in which expression TM2 S36A-D116A was induced with 1 mM IPTG, were suspended in 1.5 mL of a 100 mM potassium phosphate buffer ([…]) or 1.5 mL of a 50 mM CAPS (pH 12.0), and then were sonicated. The disrupted cells were centrifugated, and 400 μL of biotin-agarose was added to the supernatant. […] Furthermore, the TM2 S36A-D116A protein was dissociated from the carrier by increasing the pH of the reaction solution to 7.0 or 12.0 and was recovered at an efficiency of 95%.
TM2 S36A-T78A-D116A was also investigated for its pH-dependence. The protein was suspended in a buffer of pH 4.0 or pH 12.0 and was sonicated. […] By utilizing this property, high purity TM2 S36A-T78A-D116A was obtained by binding the protein to biotin-agarose at pH 4.0 and eluting it at pH 7.0 (FIG. 3B).

[6] = Biotin-binding ability of TM2 D40N
[7] = Biotin-agarose, binding at pH 7, recovery with 10 mM biotin

binding to biotin-agarose [4] | binding to 2-iminobiotin-agarose [2] | recovery rate by binding at pH 4 or 12, elution at pH 7 (without biotin) ([4]; Biotin-agarose) | binding to biotin-agarose ([5]; pH 4.0 or pH 12.0) | binding to biotin-agarose ([5]; pH 7.0) | biotin-binding ability relative to TM2 [6] | Molecule | Structure (identified by FPLC) [1] | Structure (identified by FPLC) ([1]; listed as T78A) | Sephacryl (mL), elution peak position [1] | Recovery rate (%) [2] | recovery rates compared with WT ([2]; purification with 2-iminobiotin-agarose) | Tr value (temperature at which ratio monomer:tetramer becomes 1:1) [3] | Recover rate (%) [4, 7] | Recover rate (%) ([4]; Biotin-agarose, binding at pH 7, recovery with 10 mM biotin, listed as T78A) | decomposition by Proteinase K (Proteinase K) | elution from biotin-agarose with an excess amount of biotin [4] | Note (Biotin-agarose) ([4]; binding at pH 7, recovery with 10 mM biotin, FT = flow-through) | Structure (identified by FPLC) ([1]; listed as S36AT78AD116A)
– | – | – | – | – | – | TM2 T78A: TM2 in which the 78th threonine was replaced with alanine; SEQ ID NO: 10 (protein, Synthetic TM2 T78A) MSDVQSSLTGTWYNELNSKMELTANKDGTLTGKYLSKVGDVYVPYPLSGRYNLQPPAGQGVALGWAVSWENSKIHSAATWSGQFFSESSPVILTQWLLSSSTARGDVWESTLVGNDSFTKTAPTEQQIAHAQLHCRAPRLK | tetramer | Tetramer | 45.71 mL | 10% | inferior to WT | 88 °C | about 95% | 95% | hardly decomposed | – | – | –
efficiently adsorbs to biotin-agarose | – | – | – | – | – | WT-TM2: wild-type tamavidin 2, protein comprising the amino acid sequence SEQ ID NO: 2, from Pleurotus cornucopiae (protein, listed as Pleurotus cornucopiae) MSDVQSSLTGTWYNELNSKMELTANKDGTLTGKYLSKVGDVYVPYPLSGRYNLQPPAGQGVALGWAVSWENSKIHSATTWSGQFFSESSPVILTQWLLSSSTARGDVWESTLVGNDSFTKTAPTEQQIAHAQLHCRAPRLK | Tetramer | – | 46.23 mL | 95% | – | 78 °C | 0% | – | hardly decomposed | not eluted | not eluted | –
– | did not bind | recovery rate: 95% | confirm its binding to biotin-agarose | did not bind to biotin-agarose at all | – | TM2 S36A-T78A-D116A: TM2 with 36th serine, 78th threonine and 116th aspartic acid replaced with alanine; SEQ ID NO: 8 (protein, Synthetic TM2 S36A-T78A-D116A) MSDVQSSLTGTWYNELNSKMELTANKDGTLTGKYLAKVGDVYVPYPLSGRYNLQPPAGQGVALGWAVSWENSKIHSAATWSGQFFSESSPVILTQWLLSSSTARGDVWESTLVGNASFTKTAPTEQQIAHAQLHCRAPRLK | dimer | – | 51.06 mL | 0% | – | – | 0% | – | hardly decomposed | – | – | Dimer
– | – | – | – | – | increases | TM2 D40N: TM2 having modification of the 40th aspartic acid to asparagine (protein) MSDVQSSLTGTWYNELNSKMELTANKDGTLTGKYLSKVGNVYVPYPLSGRYNLQPPAGQGVALGWAVSWENSKIHSATTWSGQFFSESSPVILTQWLLSSSTARGDVWESTLVGNDSFTKTAPTEQQIAHAQLHCRAPRLK | – | – | – | – | – | – | – | – | – | – | – | –
